43 molecules from patent US20200377590A1 (Hoffmann-La Roche, published 2020) can be followed below.

Numbering of substitutions follows the chain as printed.

T1: CD81 (UniProt P60033 1-236, limits assumed)
T1 construct: whole, on cells; also called CD81 receptor
T1 sequence (looked up): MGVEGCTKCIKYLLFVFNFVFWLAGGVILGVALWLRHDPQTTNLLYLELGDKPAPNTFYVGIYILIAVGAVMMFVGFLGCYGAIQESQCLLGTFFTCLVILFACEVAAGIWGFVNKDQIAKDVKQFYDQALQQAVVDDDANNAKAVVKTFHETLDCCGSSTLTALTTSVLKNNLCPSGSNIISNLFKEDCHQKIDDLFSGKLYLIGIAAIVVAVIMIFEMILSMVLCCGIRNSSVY

B1: CD81K04 HC GG-02-hVH_1_69 / LC GG-02-hVK_4_1 (antibody, V domains shown)
VH: QVQLVQSGAEVKKPGSSVKVSCKASGYTFSSSWMNWVRQAPGQGLEWMGRIYSGDGDAIYNQKFQGRVTITADESTSTAYMELSSLRSEDTAVYYCAREGKTGDLLLRSWGQGTLVTVSS
VL: DIVMTQSPDSLAVSLGERATINCKSSKSVSTSIYSYMHWYQQKPGQPPKLLIYYASYRESGVPDRFSGSGSGTDFTLTISSLQAEDVAVYYCQHSREFPFTFGQGTKLEIK
notes: human constant region
B2: CD81K04 HC JA_GG-14-hVH_1_69 / LC JA_GG-08-hVK_4_1 (antibody, V domains shown)
VH: B1 VH with Q62G, Q65K, R67K, V68A
VL: B1 VL with Y53K, R58L, Q93E
notes: human constant region
B3: CD81K04 HC JA_GG-14-hVH_1_69 / LC GG-02-hVK_4_1 (antibody, V domains shown)
VH: B1 VH with Q62G, Q65K, R67K, V68A
VL: B1 VL
notes: human constant region
B4: CD81K04 HC GG-02-hVH_1_69 / LC GG-03-hVK_4_1 (antibody, V domains shown)
VH: B1 VH
VL: B1 VL with M37L, H38A
notes: human constant region
B5: CD81K04 HC JA_GG-14-hVH_1_3 / LC GG-03-hVK_4_1 (antibody, V domains shown)
VH: B1 VH with S16A, Q62G, Q65K, V68A, E74T, T76A
VL: B1 VL with M37L, H38A
notes: human constant region
B6: CD81K04 HC JA_GG-14-hVH_1_69-GA / LC GG-02-hVK_4_1 (antibody, V domains shown)
VH: B1 VH with Q62G, Q65K, R67K, V68A
VL: B1 VL
notes: human constant region
B7: CD81K04 HC GG-02-hVH_1_69 / LC GG-04-hVK_4_1 (antibody, V domains shown)
VH: B1 VH
VL: B1 VL with M37L, H38A, Y57T, F100Y
notes: human constant region
B8: CD81K04 HC GG-04-hVH_1_69 / LC JA_GG-09-hVK_4_1 (antibody, V domains shown)
VH: B1 VH with V68A
VL: B1 VL with Y53K, Y57T, Q93E
notes: human constant region
B9: CD81K04 HC GG-04-hVH_1_69 / LC JA_GG-10-hVK_4_1 (antibody, V domains shown)
VH: B1 VH with V68A
VL: B1 VL with K24R, S25A, Y53K, R58L, Q93E
notes: human constant region
B10: CD81K04 HC JA_GG-14-hVH_1_69-GA / LC JA_GG-08-hVK_4_1 (antibody, V domains shown)
VH: B1 VH with Q62G, Q65K, R67K, V68A
VL: B1 VL with Y53K, R58L, Q93E
notes: human constant region
B11: CD81K04 HC GG-05-hVH_1_18 / LC JA_GG-09-hVK_4_1 (antibody, V domains shown)
VH: B1 VH with S16A, N61A, F64L, I70M, A72T, E74T, S84R, E89D
VL: B1 VL with Y53K, Y57T, Q93E
notes: human constant region
B12: CD81K04 HC GG-02-hVH_1_69 / LC JA_GG-10-hVK_4_1 (antibody, V domains shown)
VH: B1 VH
VL: B1 VL with K24R, S25A, Y53K, R58L, Q93E
notes: human constant region
B13: CD81K04 HC JA_GG-13-hVH_1_69 / LC JA_GG-08-hVK_4_1 (antibody, V domains shown)
VH: B1 VH with Y27G, N61A
VL: B1 VL with Y53K, R58L, Q93E
notes: human constant region
B14: CD81K04 HC GG-05-hVH_1_18 / LC GG-02-hVK_4_1 (antibody, V domains shown)
VH: B1 VH with S16A, N61A, F64L, I70M, A72T, E74T, S84R, E89D
VL: B1 VL
notes: human constant region
B15: CD81K04 HC GG-02-hVH_1_69 / LC JA_GG-09-hVK_4_1 (antibody, V domains shown)
VH: B1 VH
VL: B1 VL with Y53K, Y57T, Q93E
notes: human constant region
B16: CD81K04 HC GG-02-hVH_1_69 / LC JA_GG-08-hVK_4_1 (antibody, V domains shown)
VH: B1 VH
VL: B1 VL with Y53K, R58L, Q93E
notes: human constant region
B17: CD81K04 HC GG-05-hVH_1_18 / LC JA_GG-08-hVK_4_1 (antibody, V domains shown)
VH: B1 VH with S16A, N61A, F64L, I70M, A72T, E74T, S84R, E89D
VL: B1 VL with Y53K, R58L, Q93E
notes: human constant region
B18: CD81K04 HC GG-04-hVH_1_69 / LC GG-04-hVK_4_1 (antibody, V domains shown)
VH: B1 VH with V68A
VL: B1 VL with M37L, H38A, Y57T, F100Y
notes: human constant region
B19: CD81K04 HC JA_GG-13-hVH_1_69 / LC GG-04-hVK_4_1 (antibody, V domains shown)
VH: B1 VH with Y27G, N61A
VL: B1 VL with M37L, H38A, Y57T, F100Y
notes: human constant region
B20: CD81K04 HC GG-03-hVH_1_69 / LC GG-04-hVK_4_1 (antibody, V domains shown)
VH: B1 VH with N61A
VL: B1 VL with M37L, H38A, Y57T, F100Y
notes: human constant region
B21: CD81K04 HC GG-05-hVH_1_18 / LC GG-04-hVK_4_1 (antibody, V domains shown)
VH: B1 VH with S16A, N61A, F64L, I70M, A72T, E74T, S84R, E89D
VL: B1 VL with M37L, H38A, Y57T, F100Y
notes: human constant region
B22: CD81K04 HC GG-03-hVH_1_69 / LC JA_GG-08-hVK_4_1 (antibody, V domains shown)
VH: B1 VH with N61A
VL: B1 VL with Y53K, R58L, Q93E
notes: human constant region
B23: CD81K04 HC JA_GG-14-hVH_1_3 / LC JA_GG-08-hVK_4_1 (antibody, V domains shown)
VH: B1 VH with S16A, Q62G, Q65K, V68A, E74T, T76A
VL: B1 VL with Y53K, R58L, Q93E
notes: human constant region
B24: CD81K04 HC GG-03-hVH_1_69 / LC JA_GG-10-hVK_4_1 (antibody, V domains shown)
VH: B1 VH with N61A
VL: B1 VL with K24R, S25A, Y53K, R58L, Q93E
notes: human constant region
B25: CD81K04 HC JA_GG-14-hVH_1_69 / LC GG-03-hVK_4_1 (antibody, V domains shown)
VH: B1 VH with Q62G, Q65K, R67K, V68A
VL: B1 VL with M37L, H38A
notes: human constant region
B26: CD81K04 HC JA_GG-14-hVH_1_3 / LC GG-02-hVK_4_1 (antibody, V domains shown)
VH: B1 VH with S16A, Q62G, Q65K, V68A, E74T, T76A
VL: B1 VL
notes: human constant region
B27: CD81K04 HC JA_GG-14-hVH_1_3 / LC JA_GG-09-hVK_4_1 (antibody, V domains shown)
VH: B1 VH with S16A, Q62G, Q65K, V68A, E74T, T76A
VL: B1 VL with Y53K, Y57T, Q93E
notes: human constant region
B28: CD81K04 HC GG-04-hVH_1_69 / LC GG-02-hVK_4_1 (antibody, V domains shown)
VH: B1 VH with V68A
VL: B1 VL
notes: human constant region
B29: CD81K04 HC JA_GG-13-hVH_1_69 / LC GG-03-hVK_4_1 (antibody, V domains shown)
VH: B1 VH with Y27G, N61A
VL: B1 VL with M37L, H38A
notes: human constant region
B30: CD81K04 HC JA_GG-14-hVH_1_69-GA / LC GG-03-hVK_4_1 (antibody, V domains shown)
VH: B1 VH with Q62G, Q65K, R67K, V68A
VL: B1 VL with M37L, H38A
notes: human constant region
B31: CD81K04 HC GG-03-hVH_1_69 / LC GG-02-hVK_4_1 (antibody, V domains shown)
VH: B1 VH with N61A
VL: B1 VL
notes: human constant region
B32: CD81K04 HC GG-03-hVH_1_69 / LC JA_GG-09-hVK_4_1 (antibody, V domains shown)
VH: B1 VH with N61A
VL: B1 VL with Y53K, Y57T, Q93E
notes: human constant region
B33: CD81K04 HC JA_GG-13-hVH_1_69 / LC GG-02-hVK_4_1 (antibody, V domains shown)
VH: B1 VH with Y27G, N61A
VL: B1 VL
notes: human constant region
B34: CD81K04 HC GG-04-hVH_1_69 / LC JA_GG-08-hVK_4_1 (antibody, V domains shown)
VH: B1 VH with V68A
VL: B1 VL with Y53K, R58L, Q93E
notes: human constant region
B35: CD81K04 HC GG-03-hVH_1_69 / LC GG-03-hVK_4_1 (antibody, V domains shown)
VH: B1 VH with N61A
VL: B1 VL with M37L, H38A
notes: human constant region
B36: CD81K04 HC JA_GG-14-hVH_1_69 / LC JA_GG-10-hVK_4_1 (antibody, V domains shown)
VH: B1 VH with Q62G, Q65K, R67K, V68A
VL: B1 VL with K24R, S25A, Y53K, R58L, Q93E
notes: human constant region
B37: CD81K04 HC JA_GG-14-hVH_1_69-GA / LC JA_GG-09-hVK_4_1 (antibody, V domains shown)
VH: B1 VH with Q62G, Q65K, R67K, V68A
VL: B1 VL with Y53K, Y57T, Q93E
notes: human constant region
B38: CD81K04 HC JA_GG-13-hVH_1_69 / LC JA_GG-10-hVK_4_1 (antibody, V domains shown)
VH: B1 VH with Y27G, N61A
VL: B1 VL with K24R, S25A, Y53K, R58L, Q93E
notes: human constant region
B39: CD81K04 HC GG-04-hVH_1_69 / LC GG-03-hVK_4_1 (antibody, V domains shown)
VH: B1 VH with V68A
VL: B1 VL with M37L, H38A
notes: human constant region
B40: CD81K04 HC JA_GG-13-hVH_1_69 / LC JA_GG-09-hVK_4_1 (antibody, V domains shown)
VH: B1 VH with Y27G, N61A
VL: B1 VL with Y53K, Y57T, Q93E
notes: human constant region
B41: CD81K04 HC JA_GG-14-hVH_1_3 / LC GG-04-hVK_4_1 (antibody, V domains shown)
VH: B1 VH with S16A, Q62G, Q65K, V68A, E74T, T76A
VL: B1 VL with M37L, H38A, Y57T, F100Y
notes: human constant region
B42: CD81K04 HC JA_GG-14-hVH_1_69 / LC JA_GG-09-hVK_4_1 (antibody, V domains shown)
VH: B1 VH with Q62G, Q65K, R67K, V68A
VL: B1 VL with Y53K, Y57T, Q93E
notes: human constant region
B43: CD81K04 HC JA_GG-14-hVH_1_3 / LC JA_GG-10-hVK_4_1 (antibody, V domains shown)
VH: B1 VH with S16A, Q62G, Q65K, V68A, E74T, T76A
VL: B1 VL with K24R, S25A, Y53K, R58L, Q93E
notes: human constant region

In the experiment the target is T1, CD81. As to the kind of experiment: cell ELISA.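 Further: antibody binding to HuH7 cells expressing CD81 versus a CD81-negative HuH7 control line, bound antibody detected by secondary reagent, absorbance at 450 nm with 620 nm reference.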
Method: For the binding cell ELISA assay, HuH7-Rluc-H3 (positive cell line expressing CD81) and HuH7-Rluc-L1 (negative control cell line) were propagated in F-12 DMEM medium with 10% FCS at 37° C. and 5% CO₂. On day 1, the cells were trypsinized at approximately 90% confluence and resuspended at 4×10⁵ cells/mL. […] On day 2, the antibody samples to be tested were prepared in a separate polypropylene round bottom plate with a twofold desired concentration with a final volume of 120 μl. All of the assay samples were diluted in cell culture medium. […] After fixation, each well was washed 3 times with 200 μL PBS/0.05% Tween. The secondary incubation step for detection of bound anti-CD81 antibodies was performed for 2 h at room temperature on a reciprocal shaker. […] Each well was washed three times with 200 μL PBS/0.05% Tween to remove unbound antibodies. […] The absorbance was read using the ELISA Tecan reader at 450 nm with 620 nm reference wavelength.
As to B1, the ELISA data came out at 0.22.

In the case of B2, the ELISA data was determined as 0.835.

Regarding B3, the ELISA data is 0.235.

In turn, B4 gave an ELISA data of 0.142.

The molecule B5 gave an ELISA data of 0.518.

Molecule B6 had an ELISA data of 0.211.

Molecule B7 returned an ELISA data of 0.075.

The molecule B8 had an ELISA data of 0.918.

In the case of B9, the ELISA data is 0.762.

The molecule B10 displayed an ELISA data of 0.836.

With B11, the ELISA data is 0.889.

In the case of B12, the ELISA data was found to be 0.643.

In turn, B13 showed an ELISA data of 0.743.

Molecule B14 registered an ELISA data of 0.664.

B15 displayed an ELISA data of 0.783.

Turning to B16, the ELISA data was determined as 0.792.

On to B17, for which the ELISA data was found to be 0.881.

On to B18, for which the ELISA data was 0.141.

B19: the ELISA data was 0.073.

In the case of B20, the ELISA data is 0.07.

B21 gave an ELISA data of 0.187.

B22 yielded an ELISA data of 0.815.

In turn, B23 registered an ELISA data of 0.953.

The molecule B24 displayed an ELISA data of 0.691.

Take B25: the ELISA data was 0.26.

Take B26: the ELISA data is 0.575.

Turning to B27, the ELISA data was 0.975.

As to B28, the ELISA data came out at 0.27.

Turning to B29, the ELISA data stood at 0.115.

The molecule B30 came in with an ELISA data of 0.243.

In turn, B31 gave an ELISA data of 0.44.

Consider B32, for which the ELISA data amounted to 0.832.

As to B33, the ELISA data was 0.172.

B34 showed an ELISA data of 0.773.

For the molecule B35, the ELISA data was found to be 0.165.

Regarding B36, the ELISA data is 0.77.

In turn, B37 returned an ELISA data of 0.888.

With B38, the ELISA data amounted to 0.613.

In turn, B39 yielded an ELISA data of 0.162.

For B40, the ELISA data was 0.776.

As for B41, the ELISA data came out at 0.177.

As to B42, the ELISA data was determined as 0.913.

On to B43, for which the ELISA data is 0.882.
